No end group written: not given here.
Biological target: T1, HLA-A*02:01 (peptide-receptive MHC class I molecule after UV-ligand exchange) (human)
T1 construct: monomers captured on streptavidin-coated plates; also called peptide-receptive MHC molecules; MHC monomers
Assay: UV-ligand exchange, anti-b2m ELISA; peptide exchange yield grade (>10% = +; >20% = ++; >50 = +++; >75% = ++++)
Description: Candidate peptides for T cell based therapies according to the present invention were further tested for their MHC binding capacity (affinity). The individual peptide-MHC complexes were produced by UV-ligand exchange, where a UV-sensitive peptide is cleaved upon UV-irradiation, and exchanged with the peptide of interest as analyzed. Only peptide candidates that can effectively bind and stabilize the peptide-receptive MHC molecules prevent dissociation of the MHC complexes. To determine the yield of the exchange reaction, an ELISA was performed based on the detection of the light chain (β2m) of stabilized MHC complexes. The assay was performed as generally described in Rodenko et al. (Rodenko et al., 2006).
96 well MAXISorp plates (NUNC) were coated over night with 2 ug/ml streptavidin in PBS at room temperature, washed 4× and blocked for1 h at 37° C. in 2% BSA containing blocking buffer. Refolded HLA-A*02:01/MLA-001 monomers served as standards, covering the range of 15-500 ng/ml. Peptide-MHC monomers of the UV-exchange reaction were diluted 100-fold in blocking buffer. Samples were incubated for 1 h at 37° C., washed four times, incubated with 2 ug/ml HRP conjugated anti-β2 m for 1 h at 37° C., washed again and detected with TMB solution that is stopped with […]. Absorption was measured at 450 nm. Candidate peptides that show a high exchange yield (preferably higher than 50%, most preferred higher than 75%) are generally preferred for a generation and production of antibodies or fragments thereof, and/or T cell receptors or fragments thereof, as they show sufficient avidity to the MHC molecules and prevent dissociation of the MHC complexes.

| Binder | peptide exchange yield [%] |
| --- | --- |
| ISAPLVKTL [peptide ISAPLVKTL (SEQ ID NO: 24)] | 10 to 20 |
| AAYPEIVAV [peptide AAYPEIVAV (SEQ ID NO: 2)] | 50 to 75 |
| LLLSDPDKVTI [peptide LLLSDPDKVTI (SEQ ID NO: 7)] | > 75 |
| TILPGNLQSW [peptide TILPGNLQSW (SEQ ID NO: 12)] | 10 to 20 |
| LSASLVRIL [peptide LSASLVRIL (SEQ ID NO: 8)] | 10 to 20 |
| GLIDEVMVLL [peptide GLIDEVMVLL (SEQ ID NO: 5)] | > 75 |
| LLLPLLPPLSPS (also: trifluoroacetate salt) [peptide LLLPLLPPLSPS (SEQ ID NO: 6)] | > 75 |
| FASGLIHRV [peptide FASGLIHRV (SEQ ID NO: 30)] | 50 to 75 |
| SAFGFPVIL [peptide SAFGFPVIL (SEQ ID NO: 22)] | 20 to 50 |
| SLSPDLSQV [peptide SLSPDLSQV (SEQ ID NO: 18)] | 50 to 75 |
| TAYPQVVVV [peptide TAYPQVVVV (SEQ ID NO: 19)] | 20 to 50 |
| IAIPFLIKL [peptide IAIPFLIKL (SEQ ID NO: 31)] | > 75 |
| NLSETASTMAL [peptide NLSETASTMAL (SEQ ID NO: 25)] | > 75 |
| RLAKLTAAV [peptide RLAKLTAAV (SEQ ID NO: 9)] | > 75 |
| YASGSSASL [peptide YASGSSASL (SEQ ID NO: 28)] | 10 to 20 |
| VLQDELPQL [peptide VLQDELPQL (SEQ ID NO: 20)] | > 75 |

| Binder | peptide exchange yield [%] |
| --- | --- |
| SAFPFPVTVSL [peptide SAFPFPVTVSL (SEQ ID NO: 10)] | 20 to 50 |
| AVMTDLPVI [peptide AVMTDLPVI (SEQ ID NO: 16)] | > 75 |
| EMDSTVITV [peptide EMDSTVITV (SEQ ID NO: 3)] | 50 to 75 |
| YVISQVFEI [peptide YVISQVFEI (SEQ ID NO: 32)] | > 75 |
| FASEVSNVL [peptide FASEVSNVL (SEQ ID NO: 29)] | > 75 |
| SIIDFTVTM [peptide SIIDFTVTM (SEQ ID NO: 11)] | > 75 |
| VLYDNTQLQL [peptide VLYDNTQLQL (SEQ ID NO: 17)] | > 75 |
| YGIEFVVGV [peptide YGIEFVVGV (SEQ ID NO: 14)] | > 75 |
| SVIDSLPEI [peptide SVIDSLPEI (SEQ ID NO: 15)] | > 75 |
| ALAEQVQKA [peptide ALAEQVQKA (SEQ ID NO: 27)] | 50 to 75 |
| SLLSELLGV [peptide SLLSELLGV (SEQ ID NO: 23)] | > 75 |
| TAQTLVRIL [peptide TAQTLVRIL (SEQ ID NO: 26)] | 10 to 20 |
| IAFPTSISV [peptide IAFPTSISV (SEQ ID NO: 21)] | 50 to 75 |
| FLLEAQNYL [peptide FLLEAQNYL (SEQ ID NO: 4)] | > 75 |
| VLPRAFTYV [peptide VLPRAFTYV (SEQ ID NO: 13)] | > 75 |
| YAAEIASAL (also: trifluoroacetate salt) [peptide YAAEIASAL (SEQ ID NO: 1)] | 50 to 75 |

— US20190153066A1 (IMMATICS BIOTECHNOLOGIES, published 2019)
